According to paper PMC5382721 (Cell reports, 2017):

Assays:
[1] = molecular target: GST-eIF3c-E_(87–163) (yeast (S. cerevisiae)) (UniProt P32497); assay: pull-down
[2] = molecular target: GST-eIF3c-G_(1–58) (yeast (S. cerevisiae)) (UniProt P32497); assay: pull-down
[3] = molecular target: eIF1 (yeast (S. cerevisiae)) (UniProt P32911); assay: ITC
eIF1 = eIF1 (yeast (S. cerevisiae), UniProt P32911 1-108); assay: ITC
eIF1-K37E = eIF1-K37E (yeast (S. cerevisiae), UniProt P32911 1-108, K37E); assay: ITC
Chain of eIF1-K37E (P32911 whole entry K37E): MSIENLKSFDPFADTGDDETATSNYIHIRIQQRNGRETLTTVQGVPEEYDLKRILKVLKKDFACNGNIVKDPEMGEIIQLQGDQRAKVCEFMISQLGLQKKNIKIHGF

eIF1-L96P = eIF1-L96P (yeast (S. cerevisiae), UniProt P32911 1-108, L96P); assay: ITC
Chain of eIF1-L96P (P32911 whole entry L96P): as the sequence (P32911 whole entry K37E) above, with E37K, L96P counted along it

Chain of eIF1 (P32911 whole entry): as the sequence (P32911 whole entry K37E) above, with E37K counted along it
Chain of eIF1 (yeast (S. cerevisiae)) (P32911 whole entry): as the sequence (P32911 whole entry K37E) above, with E37K counted along it

Question: Which results are given for “eIF1 (from UniProt P32911 1-108) (natural protein)”?
Answer: amount of eIF1 bound relative to that bound to GST-eIF3c-F [1]: < 10%; amount of eIF1 bound relative to that bound to GST-eIF3c-F [2]: < 10%

Question: “eIF3c-E_(87–163) (from UniProt P32497 87-163) (domain or fragment)” was tested. Which Kd [3] did it give?
Answer: > 100000 nM

Question: And the stoichiometry N (eIF3c molecules bound per eIF1 molecule) [3]?
Answer: 0.4

B1: eIF3c-C_(36–87) (domain or fragment, yeast (S. cerevisiae), UniProt P32497 36-87, looked up)
chain: SESELDQESDDSFFNESESESEADVDSDDSDAKPYGPDWFKKSEFRKQGGGS
Question: B1 was tested. Which Kd (eIF1) did it give?
Answer: ~1000 nM

B2: eIF3c-F_(1–87) (domain or fragment, yeast (S. cerevisiae), UniProt P32497 1-87, looked up)
chain: MSRFFSSNYEYDVASSSSEEDLLSSSEEDLLSSSSSESELDQESDDSFFNESESESEADVDSDDSDAKPYGPDWFKKSEFRKQGGGS
Question: B2 was tested. Which Kd (eIF1) did it give?
Answer: ~1000 nM

B3: eIF3c-D_(58–163) (domain or fragment, yeast (S. cerevisiae), UniProt P32497 58-163, looked up)
chain: ADVDSDDSDAKPYGPDWFKKSEFRKQGGGSNKFLKSSNYDSSDEESDEEDGKKVVKSAKEKLLDEMQDVYNKISQAENSDDWLTISNEFDLISRLLVRAQQQNWGT
Question: Which results are given for B3?
Answer: Kd (eIF1): ~8000 nM; stoichiometry N (eIF1): 1 eIF3c molecules bound per eIF1 molecule

B4: eIF3c-B_(36–163) (domain or fragment, yeast (S. cerevisiae), UniProt P32497 36-163, looked up)
chain: SESELDQESDDSFFNESESESEADVDSDDSDAKPYGPDWFKKSEFRKQGGGSNKFLKSSNYDSSDEESDEEDGKKVVKSAKEKLLDEMQDVYNKISQAENSDDWLTISNEFDLISRLLVRAQQQNWGT
Question: With B4 as the molecule, how does the “fold reduction of binding against WT eIF1” value (eIF1-K37E) read?
Answer: 4 fold

Question: And the “fold reduction of affinity against WT eIF1” value (eIF1-L96P)?
Answer: 10 fold
